Biological target: prefusion F hybrid: RSV F (S155C/S290C plus A102C/I148C) with transmembrane domain and cytoplasmic tail of hMPV F, on VLPs (human respiratory syncytial virus; human metapneumovirus) (UniProt P12568)
Assay: dot blot of VLPs, 5C4 signal normalized over Palivizumab, 3 independent experiments

“5C4, a mouse monoclonal antibody (mAb) specific for the prefusion-only antigen site Φ” gave a fold recognition relative to postfusion F of 19.2 fold.
